Data reported in patent US6051224, “Compositions and methods for targeting cells and modulating pulmonary surfactant secretion” (Thomas Jefferson University, dated 2000).

Biological target: purified recombinant human surfactant protein A (human, UniProt Q8IWL2, 125I radioiodination using chloramine T)
Test: ligand blot of lysogen proteins (SDS-PAGE, PVDF, 125I-SP-A)

binding result: binds
B1: recombinant porcine SP-A recognition protein (SPAR) encoded by the 1.8-kb porcine lung cDNA, expressed from lambda gt11 in E. coli Y1089 (receptor)
chain: MDMCYGMMGSLFRSGSRQTLFASQVMRYADLYAASFINLLYYPFSYLFRAAHVLMPHESTVEHTHVDINEMESPLATRNRTSVDFKDTDYKRHQLTRSISEIKPPNLFPLAPQEITHCHDEDDDEEEEEEEEECGGKPKLSALIKQVLAGLTGAKAVSLWVLVGGGGLHQRYILESFLKTLKYSNHREILVLVFCICTLCSWFRIVRESVSEERKGQAGLNCMQLAPLWFVTLFHHQYIIVYPETRRVVEGPRVKQRQWEEVIQKCYGTNWALTTKTHLFQCIT
